Reference: patent US11821042B2, “Targeting chromosomal instability and downstream cytosolic DNA signaling for cancer treatment” (Cornell University, priority 2017, dated 2023)

Experiments:
[1] = tested on: cytosolic DNA; experiment: Cytosolic dsDNA and ssDNA staining after selective plasma membrane permeabilization; format: cell-based, human; conditions: after overexpression of Dnase2
Protocol: (§1) Cell fixation and antibody staining were performed as described (Bakhoun et al. Nat Commun 6, 5990 (2015)). Briefly, cells were fixed with ice-cold (−30 C) methanol for 15 minutes—when staining for centromeres, centrosomes, cGAS, Vimentin, β-actin, or α-tubulin—or 4% paraformaldehyde—when staining for RelB, p65, IRF3, ssDNA, dsDNA, CoxIV, or β-catenin. Subsequently, cells were permeabilized using 1% triton for 4 minutes. See Table 1 for antibody information.
For selective plasma membrane permeabilization used for cytosolic dsDNA and ssDNA staining, cells were treated with 0.02% saponin for 5 minutes after fixation. For single-stranded (Thermo Fisher FEREN0321) and double stranded (Life Technologies—EN0771)-specific nuclease treatment, cells were also permeabilized with 0.02% saponin for 2 minutes and treated with either nucleases for 10 minutes before fixation using 4% paraformaldehyde. TBS-BSA was used as a blocking agent during antibody staining. DAPI was added together with secondary antibodies. Cells were mounted with Prolong Diamond Antifade Mountant (Life Technologies—P36961).

[2] = tested on: H2030 cells; experiment: Chromosome missegregation in anaphase cells; format: cell-based, human; conditions: overexpression in H2030 cells
Protocol: (§2) Primary tumor specimens were analyzed from 60 patients with head and neck squamous cell carcinoma (HNSCC) (Chung et al. Cancer Cell 5, 489-500 (2004)). Forty patients had Hematoxylin and Eosin-stained (H&E) primary tumor samples of sufficient quality for high-resolution microscopy analysis. Analysis was restricted to cells fixed while undergoing anaphase as previously described (Bakhoun et al. Clin. Cancer Res. 17, 7704-7711 (2011); Zaki et al. Cancer 120, 1733-1742 (2014)). Chromosome missegregation was defined by hematoxylin staining presence in between the remaining segregating chromosomes during anaphase and it was reported as the percentage of cells undergoing anaphase with evidence of chromosome missegregation. Clinical lymph node status was defined by clinical examination or radiographic evidence of lymph node tumor involvement (Chung et al. Cancer Cell 5, 489-500 (2004)).
as §1
(§3) To determine whether chromosomal instability is causally involved in metastasis, we devised a genetic approach (Bakhoun et al., Nat. Cell Biol. 11, 27-35 (2009); Bakhoun et al., Nat Commun 6, 5990 (2015)) to alter the rate of chromosome missegregation in transplantable tumor models of human TNBC (MDA-MB-231) and lung adenocarcinoma (H2030). […] These cells, with unperturbed chromosome segregation rates, are referred to a as CIN-medium cells. […] As an important control, Kif2a was overexpressed, Kif2a is a third member of the microtubule-depolymerizing kinesin-13 proteins that lacks any kinetochore or centromere localization domains (Ems-McClung et al. Semin. Cell Dev. Biol. 21, 276-282 (2010)).

[3] = tested on: MDA-MB-231 cells; experiment: Chromosome missegregation in anaphase cells; format: cell-based, human; conditions: overexpression in MDA-MB-231 cells
Protocol: as §2, §1, §3

[4] = tested on: MDA-MB-231 cells; experiment: Intracardiac injection metastasis model, bioluminescence imaging and disease-specific survival; format: in vivo, mice; conditions: intracardiac injection of MDA-MB-231 cells expressing the protein, FIG. 2E
Protocol: Animal experiments were performed in accordance with protocols approved by the Weill Cornell Medicine Institutional Animal Care and Use Committee. […] There was no need to randomize animals. Investigators were not blinded to group allocation. Intracardiac injection was performed as previously described (Chen et al. Nature 533, 493-498 (2016)). Briefly, cells were trypsinized and washed with PBS and a 1×10^5 cells (in 100 μl of PBS) were injected into the left cardiac ventricle of female athymic 6-7-week-old athymic nude (nu/nu) mice (Jackson Laboratory strain 002019). Mice were then immediately injected with D-luciferin (150 mgkg^−1) and subjected to bioluminescence imaging (BLI) using tan IVIS Spectrum Xenogen instrument (Caliper Life Sciences) to ensure systemic dissemination of tumor cells. Metastatic burden was measured at week 5 after injection using BLI and in the case of MDA-MB-231 mice BLI images were taken every 1-2 weeks for up to 17 weeks. BLI images were analyzed using Living Image Software v.2.50. Disease-specific survival endpoint was met when the mice died or met the criteria for euthanasia under the IACUC protocol and had radiographic evidence of metastatic disease. For Orthotopic tumor implantation, 2.5×10^5 cells in 50p of PBS were mixed 1:1 with Matrigel (BD Biosciences) and injected into the fourth mammary fat pad. Only one tumor was implanted per animal. Primary tumors were surgically excited when they reached ˜1.5 cm in the largest dimension and metastatic dissemination was assessed using BLI imaging at 1-week to 3-week intervals for up to 30 weeks. Distant metastasis-free survival endpoint was met when BLI signal was seen outside of site of primary tumor transplantation. To derive short-term culture from primary tumors and metastases, anesthetized animals (isofluorane) were imaged then sacrificed. Ex-vivo BLI was subsequently performed on harvested organs to define the precise location of the metastatic lesion. Primary tumors and metastases were subsequently mechanically dissociated and cultured in DMEM with selection media to select for tumor cells. […]

[5] = tested on: cGAS; experiment: cGAS localization to micronuclei by immunofluorescence; format: cell-based, human; conditions: Lamin B2 overexpression in dnMCAK cells
Protocol: as §1

Row | Molecule | cytosolic dsDNA staining signal [1] | chromosome segregation errors during anaphase [2] | chromosome segregation errors during anaphase [3] | disease-specific survival of mice [4] | relative fraction of micronuclei with cGAS staining [5]
1 | Dnase2: Dnase2 overexpressed using a pLenti-GIII-CMV-RFP-2A-Puro plasmid (protein, UniProt O00115 19-360, looked up) Deoxyribonuclease-2-alpha: CYGDSGQPVDWFVVYKLPALRGSGEAAQRGLQYKYLDESSGGWRDGRALINSPEGAVGRSLQPLYRSNTSQLAFLLYNDQPPQPSKAQDSSMRGHTKGVLLLDHDGGFWLVHSVPNFPPPASSAAYSWPHSACTYGQTLLCVSFPFAQFSKMGKQLTYTYPWVYNYQLEGIFAQEFPDLENVVKGHHVSQEPWNSSITLTSQAGAVFQSFAKFSKFGDDLYSGWLAAALGTNLQVQFWHKTVGILPSNCSDIWQVLNVNQIAFPGPAGPSFNSTEDHSKWCVSPKGPWTCVGDMNRNQGEEQRGGGTLCAQLPALWKAFQPLVKNYQPCNGMARKPSRAYKI | disappeared | – | – | – | –
2 | Kif2b: kinesin-13 protein, human sequence SEQ ID NO:1, overexpressed in tumor cells (protein, listed as Homo sapiens) MASQFCLPESPCLSPLKPLKPHFGDIQEGIYVAIQRSDKRIHLAVVTEINRENYWVTVEWVEKAVKKGKKIDLETILLLNPALDSAEHPMPPPPLSPLALAPSSAIRDQRTATKWVAMIPQKNQTASGDSLDVRVPSKPCLMKQKKSPCLWEIQKLQEQREKRRRLQQEIRARRALDVNTRNPNYEIMHMIEEYRRHLDSSKISVLEPPQEHRICVCVRKRPLNQRETTLKDLDIITVPSDNVVMVHESKQKVDLTRYLQNQTFCFDHAFDDKASNELVYQFTAQPLVESIFRKGMATCFAYGQTGSGKTYTMGGDFSGTAQDCSKGIYALVAQDVFLLLRNSTYEKLDLKVYGTFFEIYGGKVYDLLNWKKKLQVLEDGNQQIQVVGLQEKEVCCVEEVLNLVEIGNSCRTSRQTPVNAHSSRSHAVFQIILKSGRIMHGKFSLVDLAGNERGADTTKASRKRQLEGAEINKSLLALKECILALGQNKPHTPFRASKLTLVLRDSFIGQNSSTCMIATISPGMTSCENTLNTLRYANRVKKLNVDVRPYHRGHYPIGHEAPRMLKSHIGNSEMSLQRDEFIKIPYVQSEEQKEIEEVETLPTLLGKDTTISGKGSSQWLENIQERAGGVHHDIDFCIARSLSILEQKIDALTEIQKKLKLLLADLHVKSKVE | – | significant suppression | significant suppression | most survival | –
3 | MCAK/Kif2c: kinesin-13 protein, human sequence SEQ ID NO:3 or 7, overexpressed in tumor cells (protein, listed as Homo sapiens) MAMDSSLQARLFPGLAIKIQRSNGLIHSANVRTVNLEKSCVSVEWAEGGATKGKEIDFDDVAAINPELLQLLPLHPKDNLPLQENVTIQKQKRRSVNSKIPAPKESLRSRSTRMSTVSELRITAQENDMEVELPAAANSRKQFSVPPAPTRPSCPAVAEIPLRMVSEEMEEQVHSIRGSSSANPVNSVRRKSCLVKEVEKMKNKREEKKAQNSEMRMKRAQEYDSSFPNWEFARMIKEFRATLECHPLTMTDPIEEHRICVCVRKRPLNKQELAKKEIDVISIPSKCLLLVHEPKLKVDLTKYLENQAFCFDFAFDETASNEVVYRFTARPLVQTIFEGGKATCFAYGQTGSGKTHTMGGDLSGKAQNASKGIYAMASRDVFLLKNQPCYRKLGLEVYVTFFEIYNGKLFDLLNKKAKLRVLEDGKQQVQVVGLQEHLVNSADDVIKMLDMGSACRTSGQTFANSNSSRSHACFQIILRAKGRMHGKFSLVDLAGNERGADTSSADRQTRMEGAEINKSLLALKECIRALGQNKAHTPFRESKLTQVLRDSFIGENSRTCMIATISPGISSCEYTLNTLRYADRVKELSPHSGPSGEQLIQMETEEMEACSNGALIPGNLSKEEEELSSQMSSFNEAMTQIRELEEKAMEELKEIIQQGPDWLELSEMTEQPDYDLETFVNKAESALAQQAKHFSALRDVIKALRLAMQLEEQASRQISSKKRPQ | – | significant suppression | significant suppression | most survival | –
4 | Lamin B2: mCherry-Lamin B2 overexpressed to stabilize micronuclear envelopes (protein, UniProt Q03252 1-617, looked up, mCherry fusion, mCherry-Lamin B2 overexpressed to stabilize micronuclear envelopes) Lamin-B2: MSPPSPGRRREQRRPRAAATMATPLPGRAGGPATPLSPTRLSRLQEKEELRELNDRLAHYIDRVRALELENDRLLLKISEKEEVTTREVSGIKALYESELADARRVLDETARERARLQIEIGKLRAELDEVNKSAKKREGELTVAQGRVKDLESLFHRSEVELAAALSDKRGLESDVAELRAQLAKAEDGHAVAKKQLEKETLMRVDLENRCQSLQEELDFRKSVFEEEVRETRRRHERRLVEVDSSRQQEYDFKMAQALEELRSQHDEQVRLYKLELEQTYQAKLDSAKLSSDQNDKAASAAREELKEARMRLESLSYQLSGLQKQASAAEDRIRELEEAMAGERDKFRKMLDAKEQEMTEMRDVMQQQLAEYQELLDVKLALDMEINAYRKLLEGEEERLKLSPSPSSRVTVSRATSSSSGSLSATGRLGRSKRKRLEVEEPLGSGPSVLGTGTGGSGGFHLAQQASASGSVSIEEIDLEGKFVQLKNNSDKDQSLGNWRIKRQVLEGEEIAYKFTPKYILRAGQMVTVWAAGAGVAHSPPSTLVWKGQSSWGTGESFRTVLVNADGEEVAMRTVKKSSVMRENENGEEEEEEAEFGEEDLFHQQGDPRTTSRGC | – | – | – | – | significantly diminished
5 | Kif2a: third microtubule-depolymerizing kinesin-13 protein lacking kinetochore or centromere localization domains; control (protein, UniProt O00139 1-706, looked up) Kinesin-like protein KIF2A: MATANFGKIQIGIYVEIKRSDGRIHQAMVTSLNEDNESVTVEWIENGDTKGKEIDLESIFSLNPDLVPDEEIEPSPETPPPPASSAKVNKIVKNRRTVASIKNDPPSRDNRVVGSARARPSQFPEQSSSAQQNGSVSDISPVQAAKKEFGPPSRRKSNCVKEVEKLQEKREKRRLQQQELREKRAQDVDATNPNYEIMCMIRDFRGSLDYRPLTTADPIDEHRICVCVRKRPLNKKETQMKDLDVITIPSKDVVMVHEPKQKVDLTRYLENQTFRFDYAFDDSAPNEMVYRFTARPLVETIFERGMATCFAYGQTGSGKTHTMGGDFSGKNQDCSKGIYALAARDVFLMLKKPNYKKLELQVYATFFEIYSGKVFDLLNRKTKLRVLEDGKQQVQVVGLQEREVKCVEDVLKLIDIGNSCRTSGQTSANAHSSRSHAVFQIILRRKGKLHGKFSLIDLAGNERGADTSSADRQTRLEGAEINKSLLALKECIRALGRNKPHTPFRASKLTQVLRDSFIGENSRTCMIATISPGMASCENTLNTLRYANRVKELTVDPTAAGDVRPIMHHPPNQIDDLETQWGVGSSPQRDDLKLLCEQNEEEVSPQLFTFHEAVSQMVEMEEQVVEDHRAVFQESIRWLEDEKALLEMTEEVDYDVDSYATQLEAILEQKIDILTELRDKVKSFRAALQEEEQASKQINPKRPRAL | – | no effect | no effect | middle levels of survival | –
